“And” between values parts separate entries of the source, which are not always exact repeats. Equal entries are not always repeated.
Experiments:
[1] = Translocation of ^125I-labeled peptide from mouse intestine loop into blood and organs (Example 1); type: in vivo, BALB/c mice; details: for recovered cpm/mouse / blood 15′, total cpm in the blood / blood 30′, total cpm in the blood / blood 60′, total cpm in the blood / blood/injected cpm (%), 15′ / blood/injected cpm (%), 30′ / blood/injected cpm (%), 60′ / recovered/injected cpm (%) / Epididymal fat, cpm recovered / brain, cpm recovered / kidney, cpm recovered / liver, cpm recovered / lungs, cpm recovered: Table 2 formulation (PE 6,200), intestinal loop, 224,160 cpm injected per mouse; for recovered cpm/mouse: blood 60′ plus organs; for blood 15′, total cpm in the blood / blood 30′, total cpm in the blood / blood 60′, total cpm in the blood: calculated from 50 μl sample assuming 2 ml blood; for Epididymal fat, cpm recovered / brain, cpm recovered / kidney, cpm recovered / liver, cpm recovered / lungs, cpm recovered: organ removed after 60 min
Text: The tested peptide, representing a penetrating peptide and a radio-labeled probe in a contiguous construct of SEQ ID NO 3 and SEQ ID NO 17, hereby named IBW 002 (Novetide, lot 40139-45, sequence: Ac-NYYDITLALAGICQSARLVQQLAGGGKGGK-NH2 (SEQ ID NO:22), was ^125I-labeled using the Bolton Hunter Reagent (Biochem. J. 133:529-39 (1973)). The labeled peptide was loaded on a Sephadex G10 column, washed with phosphate buffer and eluted with 3M Tiocyanate in DDW+50% n-butanol. The peak, containing 6 fractions, was kept and used for in vivo experiments.
Four male BALB/c mice, 9-10 weeks old, were deprived of food, 18 hours prior to the experiment.
The mice were anesthetized by i.p. injection of 0.05 ml of a mixture of 0.15 ml xylazine+0.85 ml of ketamin. A 2 cm long incision was made along the center of the abdomen, through the skin and abdominal wall. An intestine loop was gently pulled out through the incision and placed on wet gauze beside the animal. The loop remained intact through the entire procedure and was kept wet during the whole time. The tested compound was injected into the loop, 0.2 ml/ mouse, containing around 200,000 cpm, using a 26G needle. Fifteen minutes post injection the tip of the tail was cut and a 50 μl blood sample was drawn into a glass capillary. This was repeated 30 and 60 minutes post injection. The animals were subsequently sacrificed. The following organs were removed: epididymal fat, kidneys, liver, lungs and brain. Radioactivity in each organ and in blood samples was counted. A 5 μl sample of the injected solution was counted to determine the total injected cpm per mouse.
The total radioactive labeling injected per mouse was 224,160 cpm. Total cpm in the blood was calculated based on the 50 μl blood sample drawn out at different time points post injection, in the assumption that total blood volume of each mouse is 2 ml.

[2] = Relative potency of penetrating peptides as tested in mice (Example 3); type: in vivo; details: IBW-002 = 100
Text: Relative Potency of Penetrating Peptides as Tested in Mice.

[3] = individual mice, listed as 125I-IBW-002

Ac-NYYDITLALAGICQSARLVQQLAGGGKGGK-NH2 (Ac-NYYDITLALAGICQSARLVQQLAGGGKGGK-NH2; also: 125I label) [IBW-002, ^125I-labeled using the Bolton Hunter Reagent for in vivo tests]
recovered cpm/mouse [1, 3]: 41,440 cpm and 66,525 cpm and 61,642 cpm and 82,325 cpm
recovered cpm/mouse ([1]; mean of 4 mice): 62,983 cpm
blood 15′, total cpm in the blood [1, 3]: 37,080 cpm and 68,960 cpm and 62,280 cpm and 80,280 cpm
blood 30′, total cpm in the blood [1, 3]: 36,120 cpm and 60,680 cpm and 52,320 cpm and 70,840 cpm
blood 60′, total cpm in the blood [1, 3]: 29,720 cpm and 47,800 cpm and 44,000 cpm and 59,720 cpm
blood 15′, total cpm in the blood ([1]; mean of 4 mice): 62,150 cpm
blood 30′, total cpm in the blood ([1]; mean of 4 mice): 54,990 cpm
blood 60′, total cpm in the blood ([1]; mean of 4 mice): 45,310 cpm
blood/injected cpm (%), 15′ [1, 3]: 16.54% and 30.76% and 27.78% and 35.81%
blood/injected cpm (%), 30′ [1, 3]: 16.11% and 27.07% and 23.34% and 31.60%
blood/injected cpm (%), 60′ [1, 3]: 13.26% and 21.32% and 19.63% and 26.64%
recovered/injected cpm (%) [1, 3]: 18.49% and 29.68% and 27.50% and 36.73%
blood/injected cpm (%), 15′ ([1]; mean of 4 mice): 27.73%
blood/injected cpm (%), 30′ ([1]; mean of 4 mice): 24.53%
blood/injected cpm (%), 60′ ([1]; mean of 4 mice): 20.21%
recovered/injected cpm (%) ([1]; mean of 4 mice): 28.10%
Epididymal fat, cpm recovered [1, 3]: 547 cpm and 869 cpm and 973 cpm and 1,174 cpm
brain, cpm recovered [1, 3]: 138 cpm and 190 cpm and 202 cpm and 301 cpm
kidney, cpm recovered [1, 3]: 4,068 cpm and 6,614 cpm and 6,400 cpm and 7,650 cpm
liver, cpm recovered [1, 3]: 6,102 cpm and 9,709 cpm and 8,718 cpm and 11,674 cpm
lungs, cpm recovered [1, 3]: 865 cpm and 1,343 cpm and 1,349 cpm and 1,806 cpm
Epididymal fat, cpm recovered ([1]; mean of 4 mice): 891 cpm
brain, cpm recovered ([1]; mean of 4 mice): 208 cpm
kidney, cpm recovered ([1]; mean of 4 mice): 6,183 cpm
liver, cpm recovered ([1]; mean of 4 mice): 9,051 cpm
lungs, cpm recovered ([1]; mean of 4 mice): 1,341 cpm
time at which the relative amount in the blood peaked ([1]; post-intestinal administration, blood sampled at 15, 30 and 60 min, Table 2 formulation): 15 min
Relative potency (%) [2]: 100%
